{
  "source": "patent US6200966A",
  "about": "“Compositions for inhibiting airway wall inflammation” (Amrad Operations Pty. Ltd., priority 1996, dated 2001)",
  "origin": "cited, not measured here",
  "molecules": {"B1": {"name": "PDGFBB: platelet-derived growth factor (protein, UniProt P01127 82-190, looked up)", "Platelet-derived growth …": "SLGSLTIAEPAMIAECKTRTEVFEISRRLIDRTNANFLVWPPCVEVQRCSGCCNNRNVQCRPTQVQLRPVQVRKIEIVRKKPIFKKATVTLEDHLACKCETVAAARPVT"}},
  "tested_on": "cultured airway smooth muscle",
  "conditions": "various species",
  "data": [
    {"molecule": "B1", "values": [
      {"measurement": "mitogenic activity on airway smooth muscle", "result": "most effective proliferative agents"}
    ]}
  ]
}
